{
  "source": "patent US20030108935",
  "about": "“Probing binding interactions between molecules and nucleic acids by unzipping a nucleic acid molecule double helix” (published 2003)",
  "key": {"[1]": {"system": "EcoRI restriction endonuclease", "conditions": "highest Ka measured in this report; optical-trap unzipping (UFAPA); 10 mM HEPES pH 7.6, 1 mM EDTA, no Mg2+, 106-262 mM Na+, 23 C; Ka decreases with Na+ …"}, "[2]": {"biological_target": "T1, BsoBI restriction endonuclease (UniProt P70985 P70985:2-323)", "T1 sequence": "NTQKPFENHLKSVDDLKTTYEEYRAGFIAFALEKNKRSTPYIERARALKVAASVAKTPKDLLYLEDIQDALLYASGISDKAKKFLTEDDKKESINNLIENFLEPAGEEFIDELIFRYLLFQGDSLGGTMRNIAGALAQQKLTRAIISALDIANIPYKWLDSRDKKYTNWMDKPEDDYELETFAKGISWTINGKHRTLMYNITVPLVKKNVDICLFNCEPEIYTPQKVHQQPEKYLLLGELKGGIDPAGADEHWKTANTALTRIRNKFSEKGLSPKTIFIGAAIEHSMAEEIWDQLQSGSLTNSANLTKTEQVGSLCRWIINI", "assay": "optical-trap unzipping, dynamic force spectroscopy: f_beta 4.04 +/- 0.14 pN, ln(toff in s) 4.98 +/- 0.27, N=243; BsoBI 0.7 nM, 50 mM Na phosphate pH 7.0, 50 mM", "conditions": "tags: New England BioLabs, commercial grade, used without further purification; chain copies: 2 (stated, 72 kD dimer); label: digoxigenin and biotin (via anchoring segment and insert duplex)", "procedure": "(§1) Unzipping Buffer Conditions. Experiments with BsoBI and XhoI were performed at room temperature (23° C.) in a buffer containing 50 mM sodium phosphate buffer pH 7.0, 50 mM NaCl, 0.02% Tween-20, 10 mM EDTA. To facilitate better comparisons of future EcoRI results with previously reported results, mapping and equilibrium constants studies of EcoRI were performed at room temperature (23° C.) in a buffer containing 10 mM HEPES, pH 7.6, 1 mM EDTA, 50 μM DTT, 100 μg/ml BSA, 500 μg/ml Blotting Grade Blocker (Bio-Rad) and NaCl added to produce total Na+concentrations of 106 to 262 mM. […] The Hepes buffer is similar to the buffer used by Ha et al., “Role of the Hydrophobic Effect in Stability of Site-Specific Protein-DNA Complexes,” J. Mol. Biol. 209:801-816 (1989), the entire disclosure of which is hereby incorporated by reference in its entirety, for temperature dependence studies of EcoRI binding to its site on pBR322. Because of the tendency for EcoRI to aggregate at lower ionic strengths (Jen-Jacobson et al., “Coordinate Ion Pair Formation Between EcoRI Endonuclease and DNA,” J. Biol. Chem. 258:14638-14646 (1983), the entire disclosure of which is hereby incorporated by reference in its entirety), the EcoRI mapping data were taken at 131 mM total Na+ concentration. […]"}, "[3]": {"biological_target": "T1, BsoBI restriction endonuclease", "assay": "optical-trap unzipping, dynamic force spectroscopy: f_beta 4.36 +/- 0.53 pN, ln(toff in s) 7.6 +/- 1.1, N=51; BsoBI 0.7 nM, 50 mM Na phosphate pH 7.0, 50 mM NaCl, 10 mM EDTA, no Mg2+, 23 C", "conditions": "tags: New England BioLabs, commercial grade, used without further purification; chain copies: 2 (stated, 72 kD dimer); label: digoxigenin and biotin (via anchoring segment and insert duplex)", "procedure": "as §1"}},
  "data": [
    {"molecule": "pBR322 EarI large fragment unzipping segment with single EcoRI site", "values": [
      {"measurement": "Ka", "setting": "[1]", "value": "1e+11", "unit": "M⁻¹"}
    ]},
    {"molecule": "BsoBI alpha site (dsDNA) DNA 1: TTCCTCGGGAAT DNA 2: ATTCCCGAGGAA", "values": [
      {"measurement": "binding result", "setting": "[2]", "value": "binds"}
    ]},
    {"molecule": "beta site (BsoBI/XhoI) (dsDNA) DNA 1: AAACTCGAGAGA DNA 2: TCTCTCGAGTTT", "values": [
      {"measurement": "binding result", "setting": "[3]", "value": "binds"}
    ]}
  ]
}
